Test results: IntAct's records for PubMed 17314515

B1: Protein Vpr (Human immunodeficiency virus type 1 group M subtype B (isolate BRU/LAI)), P05928 (parent)
chain: MEQAPEDQGPQREPHNEWTLELLEELKNEAVRHFPRIWLHGLGQHIYETYGDTWAGVEAIIRILQQLLFIHFRIGCRHSRIGVTQQRRARNGASRS
B2: Protein Vpx (Simian immunodeficiency virus (isolate PBj14/BCL-3)), P19508 (parent)
chain: MSDPRERIPPGNSGEETIGEAFDWLDRTVEEINRAAVNHLPRELIFQVWRRSWEYWHDEMGMSVSYTKYRYLCLIQKAMFMHCKKGCRCLGGEHGAGGWRPGPPPPPPPGLA

Variants of: B1
Conditions: with DCAF1, Q9Y4B6-3
Target sequence in this assay (Q9Y4B6 other isoform, or with tags, fused parts or gaps): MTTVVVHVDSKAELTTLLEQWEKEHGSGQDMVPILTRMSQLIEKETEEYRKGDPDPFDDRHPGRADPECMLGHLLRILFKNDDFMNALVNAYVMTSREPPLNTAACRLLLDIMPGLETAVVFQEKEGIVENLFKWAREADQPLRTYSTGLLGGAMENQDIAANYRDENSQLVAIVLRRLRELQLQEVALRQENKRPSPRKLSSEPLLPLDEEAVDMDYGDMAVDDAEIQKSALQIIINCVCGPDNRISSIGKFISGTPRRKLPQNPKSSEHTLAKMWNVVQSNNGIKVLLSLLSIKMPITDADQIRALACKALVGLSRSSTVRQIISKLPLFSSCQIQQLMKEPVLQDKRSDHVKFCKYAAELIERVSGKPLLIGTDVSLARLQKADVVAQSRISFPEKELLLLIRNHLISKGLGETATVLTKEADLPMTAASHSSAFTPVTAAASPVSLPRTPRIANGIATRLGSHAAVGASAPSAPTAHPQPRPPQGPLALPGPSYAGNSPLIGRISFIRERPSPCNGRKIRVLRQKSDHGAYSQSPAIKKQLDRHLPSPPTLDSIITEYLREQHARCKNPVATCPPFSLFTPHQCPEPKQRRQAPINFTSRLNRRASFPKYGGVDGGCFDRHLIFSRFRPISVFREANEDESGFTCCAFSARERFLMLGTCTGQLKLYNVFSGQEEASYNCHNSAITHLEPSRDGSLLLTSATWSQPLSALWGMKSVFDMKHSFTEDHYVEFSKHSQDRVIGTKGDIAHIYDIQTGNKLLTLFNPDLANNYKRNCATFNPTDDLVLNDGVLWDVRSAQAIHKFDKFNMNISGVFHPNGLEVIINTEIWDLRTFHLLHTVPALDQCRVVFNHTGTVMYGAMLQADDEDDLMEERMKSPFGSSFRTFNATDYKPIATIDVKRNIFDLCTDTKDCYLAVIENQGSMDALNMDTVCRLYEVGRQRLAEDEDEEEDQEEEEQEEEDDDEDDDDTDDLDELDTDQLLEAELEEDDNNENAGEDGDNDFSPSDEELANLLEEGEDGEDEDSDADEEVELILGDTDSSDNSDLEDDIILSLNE
With MEQAPEDQGPQREPHNEWTLELLEELKNEAVRHFPRIWLHGLGQHIYETYGDTWAGVEAIIRILRQLLFIHFRIGCRHSRIGVTQQRRARNGASRS the “effect of a mutation on the interaction” value was “disrupting interaction”.
For Q65A, the “effect of a mutation on the interaction” value was “disrupting interaction”.

Variants of: B2
Conditions: with DCAF1, Q9Y4B6-3
Target sequence in this assay (Q9Y4B6 other isoform, or with tags, fused parts or gaps): as the sequence (Q9Y4B6 other isoform, or with tags, fused parts or gaps) above
In the case of MSDPRERIPPGNSGEETIGEAFDWLDRTVEEINRAAVNHLPRELIFQVWRRSWEYWHDEMGMSVSYTKYRYLCLIRKAMFMHCKKGCRCLGGEHGAGGWRPGPPPPPPPGLA, the “effect of a mutation on the interaction” value is reported as “disrupting interaction”.
